From US20230151091A1 (NEW YORK UNIVERSITY, published 2023)
Residue numbers refer to the chain shown, from its start.

T1: mouse MuSK, endogenous (C2C12 myotubes; neuromuscular synapses of mice) (mouse, UniProt Q61006 22-868)
T1 sequence (looked up): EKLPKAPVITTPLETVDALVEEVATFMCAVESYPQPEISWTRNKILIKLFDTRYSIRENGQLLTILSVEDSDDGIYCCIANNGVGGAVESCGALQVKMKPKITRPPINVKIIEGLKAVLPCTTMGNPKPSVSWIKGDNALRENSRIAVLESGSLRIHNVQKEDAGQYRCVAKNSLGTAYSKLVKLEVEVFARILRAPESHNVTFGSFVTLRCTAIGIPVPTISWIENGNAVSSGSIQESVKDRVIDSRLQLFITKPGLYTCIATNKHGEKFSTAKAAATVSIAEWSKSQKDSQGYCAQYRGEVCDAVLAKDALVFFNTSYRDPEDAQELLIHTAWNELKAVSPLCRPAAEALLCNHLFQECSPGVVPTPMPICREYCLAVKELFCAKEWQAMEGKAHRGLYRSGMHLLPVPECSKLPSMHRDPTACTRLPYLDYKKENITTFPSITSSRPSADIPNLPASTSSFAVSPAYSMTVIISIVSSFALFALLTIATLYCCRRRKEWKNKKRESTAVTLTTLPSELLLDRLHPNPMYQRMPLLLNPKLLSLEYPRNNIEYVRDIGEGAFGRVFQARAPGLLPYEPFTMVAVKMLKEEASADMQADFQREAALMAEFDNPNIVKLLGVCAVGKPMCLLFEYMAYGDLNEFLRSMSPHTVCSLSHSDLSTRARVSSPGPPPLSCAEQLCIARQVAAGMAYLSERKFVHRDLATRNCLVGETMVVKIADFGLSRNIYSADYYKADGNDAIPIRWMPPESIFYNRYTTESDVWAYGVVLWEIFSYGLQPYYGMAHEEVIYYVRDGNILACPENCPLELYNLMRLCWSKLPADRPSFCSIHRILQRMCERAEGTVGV

T2: rat MuSK (rat, UniProt Q62838 22-494, limits assumed)
T2 construct: Coated on Biacore chip (200RU) or ELISA plate
T2 sequence (looked up): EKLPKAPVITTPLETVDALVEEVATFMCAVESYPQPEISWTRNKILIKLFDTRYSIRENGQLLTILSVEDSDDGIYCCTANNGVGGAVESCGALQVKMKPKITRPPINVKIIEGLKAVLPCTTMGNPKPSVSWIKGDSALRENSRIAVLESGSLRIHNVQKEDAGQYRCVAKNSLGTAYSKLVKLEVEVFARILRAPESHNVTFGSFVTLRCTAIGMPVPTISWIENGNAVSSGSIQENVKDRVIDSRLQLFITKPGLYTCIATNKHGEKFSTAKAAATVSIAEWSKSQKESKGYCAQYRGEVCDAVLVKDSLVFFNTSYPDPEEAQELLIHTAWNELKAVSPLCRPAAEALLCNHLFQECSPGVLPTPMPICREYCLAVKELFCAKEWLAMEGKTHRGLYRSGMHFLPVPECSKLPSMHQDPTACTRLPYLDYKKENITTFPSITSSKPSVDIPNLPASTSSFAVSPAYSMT

T3: mouse MuSK (mouse, UniProt Q61006 22-494, limits assumed)
T3 construct: Coated on ELISA plates or on the Biacore chip; also called full length mouse MuSK; mouse MuSK (in house produced in HEK293 cells)
T3 sequence (looked up): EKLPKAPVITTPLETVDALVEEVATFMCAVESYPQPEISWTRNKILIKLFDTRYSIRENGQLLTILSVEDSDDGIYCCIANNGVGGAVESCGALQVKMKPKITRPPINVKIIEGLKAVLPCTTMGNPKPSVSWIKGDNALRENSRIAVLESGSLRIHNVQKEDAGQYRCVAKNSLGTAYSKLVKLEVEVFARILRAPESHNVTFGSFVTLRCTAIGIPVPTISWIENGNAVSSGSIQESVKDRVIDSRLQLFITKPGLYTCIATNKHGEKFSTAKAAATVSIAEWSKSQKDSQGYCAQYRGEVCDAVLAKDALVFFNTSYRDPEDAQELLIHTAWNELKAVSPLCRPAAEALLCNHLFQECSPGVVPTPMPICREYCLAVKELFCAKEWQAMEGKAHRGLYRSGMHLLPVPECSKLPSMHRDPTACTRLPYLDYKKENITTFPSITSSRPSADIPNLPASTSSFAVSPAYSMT

B1: 3B2g1m4 (antibody, human IgG1, V domains shown)
VH: EVQLLESGGGLVQPGGSLRLSCAASGFTFSDYGMSWVRQAPGKGLEWVSAIPWQGGSTYYKESVKGRFTISRDNSKNTLYLQMNSLRAEDTAVYYCAKRSGRIAFGALDAWGQGTLVTVSS
VL: QTVVTQEPSFSVSPGGTVTLTCGLSSGSVTSSNYPDWYQQTPGQAPRTLIYSTDSRHSGVPDRFSGSILGNKAALTITGAQADDESDYYCGLYMYSGSKNYVFGGGTKLTVL
notes: human IgG1-LALA backbone; produced in HEK293 cells
B2: 3B2g2m2 (antibody, human IgG1, V domains shown)
VH: B1 VH with W53G, Q54S
VL: B1 VL with M94S
notes: as for B1
B3: 3B2g2m4 (antibody, human IgG1, V domains shown)
VH: B1 VH
VL: B1 VL with M94S
notes: as for B1

molecular target: T1, mouse MuSK, endogenous (C2C12 myotubes; …); assay: cell-based or functional assay

| MuSK phosphorylation in C2C12 myotubes | Binder |
| --- | --- |
| ~58 % of 1 nM agrin | B1 |
| ~80 % of 1 nM agrin | B2 |
| ~58 % of 1 nM agrin | B3 |

molecular target: T2, rat MuSK; assay: Biacore, MuSK on chip, association pH 7.4, dissociation pH 5.5
Description: (§1) For affinity determination, a CMS chip was coated with cynomolgus monkey, rat and mouse MuSK (200RU) and 66.7 nM of antibody was applied and kinetic parameters calculated (Table 8). The following conclusions could be drawn: (1) 3B2g1m3 and 3B2g2m3 (m3 variants) show significant drop in affinity for MuSK for all species tested; (2) 3B2g1m2 and 3B2g2m2 (m2 variants) show some drop in affinity for MuSK; (3) 3B2g1m1, 3B2g2m1, 3B2g1m4, 3B2g2m4 (ml and m4 variants) show no drop in affinity for MuSK for all species tested; and (4) for all clones there is no difference between g1 and g2 variants (VL methionine versus serine in CDR3).
(§2) In order to study pH dependent binding of our antibodies to MuSK, the same Biacore was used as above, but now dissociation was done at pH 5.5 instead of pH 7.4. […] The following conclusions could be drawn for the different variants: (1) 3B2g1m3 and 3B2g2m3 (m3 variants) show significant drop in affinity for MuSK for all species tested; (2) 3B2g1m2 and 3B2g2m2 (m2 variants) show some drop in affinity for MuSK; (3) 3B2g1m1, 3B2g2m1, 3B2g1m4, 3B2g2m4 (m1 and m4 variants) show no drop in affinity for MuSK for all species tested; and (4) for all clones there is no difference between g1 and g2 variants (VL methionine versus serine in CDR3).

| R0 | koff | kon | Binder |
| --- | --- | --- | --- |
| 171 RU | 0.00558 s⁻¹ | 950000 M⁻¹ s⁻¹ | B1 |
| 145 RU | 0.0973 s⁻¹ | 40000 M⁻¹ s⁻¹ | B2 |
| 172 RU | 0.00538 s⁻¹ | 1.02e+06 M⁻¹ s⁻¹ | B3 |

molecular target: T4, cynomolgus monkey MuSK (cynomolgus monkey, UniProt A0A2K5USF6 24-487); assay: as above
Description: as §1, §2

T4 sequence (A0A2K5USF6 entry or part of it): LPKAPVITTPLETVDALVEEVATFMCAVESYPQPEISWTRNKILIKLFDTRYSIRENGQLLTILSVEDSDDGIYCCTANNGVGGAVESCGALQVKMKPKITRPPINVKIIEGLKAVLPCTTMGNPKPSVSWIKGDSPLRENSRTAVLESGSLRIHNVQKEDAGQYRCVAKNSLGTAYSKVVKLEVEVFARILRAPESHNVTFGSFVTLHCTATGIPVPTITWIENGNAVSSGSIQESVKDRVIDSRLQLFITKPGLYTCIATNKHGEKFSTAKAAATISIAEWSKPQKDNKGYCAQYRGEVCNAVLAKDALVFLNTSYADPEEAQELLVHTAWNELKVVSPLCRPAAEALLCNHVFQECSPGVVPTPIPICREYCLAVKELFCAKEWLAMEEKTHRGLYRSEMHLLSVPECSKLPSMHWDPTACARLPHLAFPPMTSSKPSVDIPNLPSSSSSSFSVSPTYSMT

| R0 | koff | kon | Binder |
| --- | --- | --- | --- |
| 146 RU | 0.00261 s⁻¹ | 680000 M⁻¹ s⁻¹ | B1 |
| 146 RU | 0.00326 s⁻¹ | 860000 M⁻¹ s⁻¹ | B2 |
| 148 RU | 0.00256 s⁻¹ | 750000 M⁻¹ s⁻¹ | B3 |

molecular target: T3, mouse MuSK; assay: as above
Description: as §1, §2

| R0 | koff | kon | Binder |
| --- | --- | --- | --- |
| 191 RU | 0.00304 s⁻¹ | 980000 M⁻¹ s⁻¹ | B1 |
| 153 RU | 0.0882 s⁻¹ | 210000 M⁻¹ s⁻¹ | B2 |
| 191 RU | 0.003 s⁻¹ | 1.04e+06 M⁻¹ s⁻¹ | B3 |

molecular target: T2, rat MuSK; assay: Biacore, MuSK on chip (200RU), 66.7 nM mAb, dissociation pH 7.4
Description: as §1

| R0 | koff | kon | Binder |
| --- | --- | --- | --- |
| 155 RU | 0.00192 s⁻¹ | 1.12e+06 M⁻¹ s⁻¹ | B1 |
| 130 RU | 0.00281 s⁻¹ | 1.56e+06 M⁻¹ s⁻¹ | B2 |
| 158 RU | 0.00196 s⁻¹ | 1.19e+06 M⁻¹ s⁻¹ | B3 |

molecular target: T4, cynomolgus monkey MuSK; assay: as above
Description: as §1

| R0 | koff | kon | Binder |
| --- | --- | --- | --- |
| 140 RU | 0.00086 s⁻¹ | 730000 M⁻¹ s⁻¹ | B1 |
| 136 RU | 0.00179 s⁻¹ | 890000 M⁻¹ s⁻¹ | B2 |
| 142 RU | 0.00088 s⁻¹ | 790000 M⁻¹ s⁻¹ | B3 |

molecular target: T3, mouse MuSK; assay: as above
Description: as §1

| R0 | koff | kon | Binder |
| --- | --- | --- | --- |
| 192 RU | 0.00065 s⁻¹ | 1.08e+06 M⁻¹ s⁻¹ | B1 |
| 158 RU | 0.00231 s⁻¹ | 1.71e+06 M⁻¹ s⁻¹ | B2 |
| 193 RU | 0.00064 s⁻¹ | 1.15e+06 M⁻¹ s⁻¹ | B3 |
